# B1: Enhancer of mRNA-decapping protein 3 (Homo sapiens), Q96F86 (parent)
# chain: MATDWLGSIVSINCGDSLGVYQGRVSAVDQVSQTISLTRPFHNGVKCLVPEVTFRAGDITELKILEIPGPGDNQHFGDLHQTELGPSGAGCQVGINQNGTGKFVKKPASSSSAPQNIPKRTDVKSQDVAVSPQQQQCSKSYVDRHMESLSQSKSFRRRHNSWSSSSRHPNQATPKKSGLKNGQMKNKDDECFGDDIEEIPDTDFDFEGNLALFDKAAVFEEIDTYERRSGTRSRGIPNERPTRYRHDENILESEPIVYRRIIVPHNVSKEFCTDSGLVVPSISYELHKKLLSVAEKHGLTLERRLEMTGVCASQMALTLLGGPNRLNPKNVHQRPTVALLCGPHVKGAQGISCGRHLANHDVQVILFLPNFVKMLESITNELSLFSKTQGQQVSSLKDLPTSPVDLVINCLDCPENVFLRDQPWYKAAVAWANQNRAPVLSIDPPVHEVEQGIDAKWSLALGLPLPLGEHAGRIYLCDIGIPQQVFQEVGINYHSPFGCKFVIPLHSA
# partner: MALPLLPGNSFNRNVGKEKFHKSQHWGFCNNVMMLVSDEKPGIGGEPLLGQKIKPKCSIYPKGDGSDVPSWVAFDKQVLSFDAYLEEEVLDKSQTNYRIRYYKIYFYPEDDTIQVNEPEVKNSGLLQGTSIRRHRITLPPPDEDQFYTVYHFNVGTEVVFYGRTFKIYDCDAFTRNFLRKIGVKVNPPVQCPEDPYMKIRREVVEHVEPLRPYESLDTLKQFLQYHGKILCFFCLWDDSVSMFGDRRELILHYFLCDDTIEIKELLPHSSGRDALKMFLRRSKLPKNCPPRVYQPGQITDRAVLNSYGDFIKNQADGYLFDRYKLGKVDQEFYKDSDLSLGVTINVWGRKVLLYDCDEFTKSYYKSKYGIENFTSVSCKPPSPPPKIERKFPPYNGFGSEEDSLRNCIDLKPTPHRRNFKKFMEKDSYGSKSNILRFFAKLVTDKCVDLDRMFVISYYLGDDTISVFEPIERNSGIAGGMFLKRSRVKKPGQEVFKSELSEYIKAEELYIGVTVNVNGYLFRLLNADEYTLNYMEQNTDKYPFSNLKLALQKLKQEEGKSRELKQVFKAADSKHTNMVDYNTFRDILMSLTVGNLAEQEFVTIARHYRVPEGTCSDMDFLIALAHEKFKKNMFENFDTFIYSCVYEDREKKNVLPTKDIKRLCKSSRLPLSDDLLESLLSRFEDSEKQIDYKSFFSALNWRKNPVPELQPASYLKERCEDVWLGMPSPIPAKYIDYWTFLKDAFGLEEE
# B2: Serine hydroxymethyltransferase, mitochondrial (Homo sapiens), P34897 (parent)
# chain: MLYFSLFWAARPLQRCGQLVRMAIRAQHSNAAQTQTGEANRGWTGQESLSDSDPEMWELLQREKDRQCRGLELIASENFCSRAALEALGSCLNNKYSEGYPGKRYYGGAEVVDEIELLCQRRALEAFDLDPAQWGVNVQPYSGSPANLAVYTALLQPHDRIMGLDLPDGGHLTHGYMSDVKRISATSIFFESMPYKLNPKTGLIDYNQLALTARLFRPRLIIAGTSAYARLIDYARMREVCDEVKAHLLADMAHISGLVAAKVIPSPFKHADIVTTTTHKTLRGARSGLIFYRKGVKAVDPKTGREIPYTFEDRINFAVFPSLQGGPHNHAIAAVAVALKQACTPMFREYSLQVLKNARAMADALLERGYSLVSGGTDNHLVLVDLRPKGLDGARAERVLELVSITANKNTCPGDRSAITPGGLRLGAPALTSRQFREDDFRRVVDFIDEGVNIGLEVKSKTAKLQDFKSFLLKDSETSQRLANLRQRVEQFARAFPMPGFDEH
# partner: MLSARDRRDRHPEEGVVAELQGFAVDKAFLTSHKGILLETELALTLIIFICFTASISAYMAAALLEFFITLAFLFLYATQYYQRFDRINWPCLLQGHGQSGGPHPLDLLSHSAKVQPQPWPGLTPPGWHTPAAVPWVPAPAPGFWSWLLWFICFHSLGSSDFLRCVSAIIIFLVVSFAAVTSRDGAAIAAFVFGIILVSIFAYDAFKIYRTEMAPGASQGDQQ
# B3: Ligand of Numb protein X 2 (Homo sapiens), Q8N448 (parent)
# chain: MGTTSDEMVSVEQTSSSSLNPLCFECGQQHWTRENHLYNYQNEVDDDLVCHICLQPLLQPLDTPCGHTFCYKCLRNFLQEKDFCPLDRKRLHFKLCKKSSILVHKLLDKLLVLCPFSSVCKDVMQRCDLEAHLKNRCPGASHRRVALERRKTSRTQAEIENENGPTLLDPAGTLSPEADCLGTGAVPVERHLTSASLSTWSEEPGLDNPAFEESAGADTTQQPLSLPEGEITTIEIHRSNPYIQLGISIVGGNETPLINIVIQEVYRDGVIARDGRLLAGDQILQVNNYNISNVSHNYARAVLSQPCNTLHLTVLRERRFGNRAHNHSDSNSPREEIFQVALHKRDSGEQLGIKLVRRTDEPGVFILDLLEGGLAAQDGRLSSNDRVLAINGHDLKYGTPELAAQIIQASGERVNLTIARPGKPQPGNTIREAGNHSSSSQHHTPPPYYSRPSSHKDLTQCVTCQEKHITVKKEPHESLGMTVAGGRGSKSGELPIFVTSVPPHGCLARDGRIKRGDVLLNINGIDLTNLSHSEAVAMLKASAASPAVALKALEVQIVEEATQNAEEQPSTFSENEYDASWSPSWVMWLGLPSTLHSCHDIVLRRSYLGSWGFSIVGGYEENHTNQPFFIKTIVLGTPAYYDGRLKCGDMIVAVNGLSTVGMSHSALVPMLKEQRNKVTLTVICWPGSLV
# partner: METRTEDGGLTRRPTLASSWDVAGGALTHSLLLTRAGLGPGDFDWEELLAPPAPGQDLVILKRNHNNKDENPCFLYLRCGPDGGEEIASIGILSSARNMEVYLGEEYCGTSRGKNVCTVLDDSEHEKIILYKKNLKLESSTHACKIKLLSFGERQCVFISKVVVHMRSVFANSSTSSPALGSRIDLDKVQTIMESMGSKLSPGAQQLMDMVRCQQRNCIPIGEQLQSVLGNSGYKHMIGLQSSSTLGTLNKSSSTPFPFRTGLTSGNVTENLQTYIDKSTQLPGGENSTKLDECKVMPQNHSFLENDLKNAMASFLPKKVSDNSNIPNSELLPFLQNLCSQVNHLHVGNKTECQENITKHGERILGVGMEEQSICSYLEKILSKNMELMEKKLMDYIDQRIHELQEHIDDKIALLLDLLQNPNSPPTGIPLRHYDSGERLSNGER
# B4: Protein VAC14 homolog (Homo sapiens), Q08AM6 (parent)
# chain: MNPEKDFAPLTPNIVRALNDKLYEKRKVAALEIEKLVREFVAQNNTVQIKHVIQTLSQEFALSQHPHSRKGGLIGLAACSIALGKDSGLYLKELIEPVLTCFNDADSRLRYYACEALYNIVKVARGAVLPHFNVLFDGLSKLAADPDPNVKSGSELLDRLLKDIVTESNKFDLVSFIPLLRERIYSNNQYARQFIISWILVLESVPDINLLDYLPEILDGLFQILGDNGKEIRKMCEVVLGEFLKEIKKNPSSVKFAEMANILVIHCQTTDDLIQLTAMCWMREFIQLAGRVMLPYSSGILTAVLPCLAYDDRKKSIKEVANVCNQSLMKLVTPEDDELDELRPGQRQAEPTPDDALPKQEGTASGGPDGSCDSSFSSGISVFTAASTERAPVTLHLDGIVQVLNCHLSDTAIGMMTRIAVLKWLYHLYIKTPRKMFRHTDSLFPILLQTLSDESDEVILKDLEVLAEIASSPAGQTDDPGPLDGPDLQASHSELQVPTPGRAGLLNTSGTKGLECSPSTPTMNSYFYKFMINLLKRFSSERKLLEVRGPFIIRQLCLLLNAENIFHSMADILLREEDLKFASTMVHALNTILLTSTELFQLRNQLKDLKTLESQNLFCCLYRSWCHNPVTTVSLCFLTQNYRHAYDLIQKFGDLEVTVDFLAEVDKLVQLIECPIFTYLRLQLLDVKNNPYLIKALYGLLMLLPQSSAFQLLSHRLQCVPNPELLQTEDSLKAAPKSQKADSPSIDYAELLQHFEKVQNKHLEVRHQRSGRGDHLDRRVVL
# Variants of: B1
# Settings: with efhc2_human EFHC2, Q5JST6
row,Variant,effect of a mutation on the interaction
1,F213L,with no effect

# Variants of: B2
# Settings: with cklf5_human CMTM5, Q96DZ9
row,Variant,effect of a mutation on the interaction
1,V112M,disrupting interaction strength

# Variants of: B3
# Settings: with paat_human PAAT
row,Variant,effect of a mutation on the interaction
1,P669A,with no effect

# Variants of: B4
# Settings: with fnd3b_human FNDC3B
row,Variant,effect of a mutation on the interaction
1,A127S,with no effect

# Variants of: B4
# Settings: with at2l2_human PHYKPL
row,Variant,effect of a mutation on the interaction
1,A127S,with no effect

# Variants of: B4
# Settings: with cd209_human CD209, Q9NNX6
# Chain of cd209_human CD209, Q9NNX6 (Q9NNX6 whole entry): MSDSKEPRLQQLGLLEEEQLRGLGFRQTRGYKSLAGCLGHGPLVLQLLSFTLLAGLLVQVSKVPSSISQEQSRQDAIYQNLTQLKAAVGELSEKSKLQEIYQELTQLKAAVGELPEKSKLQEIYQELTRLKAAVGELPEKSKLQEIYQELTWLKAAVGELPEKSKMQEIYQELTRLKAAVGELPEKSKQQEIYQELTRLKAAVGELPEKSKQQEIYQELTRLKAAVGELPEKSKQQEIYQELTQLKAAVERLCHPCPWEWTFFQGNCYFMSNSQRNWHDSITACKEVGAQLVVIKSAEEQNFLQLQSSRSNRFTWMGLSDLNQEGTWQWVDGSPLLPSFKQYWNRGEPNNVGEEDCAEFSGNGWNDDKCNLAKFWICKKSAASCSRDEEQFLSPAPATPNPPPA
row,Variant,effect of a mutation on the interaction
1,A127S,with no effect

# Variants of: B4
# Settings: with myome_human PDE4DIP
row,Variant,effect of a mutation on the interaction
1,A127S,with no effect

# Variants of: B4
# Settings: with co8a1_human COL8A1, P27658
# Chain of co8a1_human COL8A1, P27658 (P27658 whole entry): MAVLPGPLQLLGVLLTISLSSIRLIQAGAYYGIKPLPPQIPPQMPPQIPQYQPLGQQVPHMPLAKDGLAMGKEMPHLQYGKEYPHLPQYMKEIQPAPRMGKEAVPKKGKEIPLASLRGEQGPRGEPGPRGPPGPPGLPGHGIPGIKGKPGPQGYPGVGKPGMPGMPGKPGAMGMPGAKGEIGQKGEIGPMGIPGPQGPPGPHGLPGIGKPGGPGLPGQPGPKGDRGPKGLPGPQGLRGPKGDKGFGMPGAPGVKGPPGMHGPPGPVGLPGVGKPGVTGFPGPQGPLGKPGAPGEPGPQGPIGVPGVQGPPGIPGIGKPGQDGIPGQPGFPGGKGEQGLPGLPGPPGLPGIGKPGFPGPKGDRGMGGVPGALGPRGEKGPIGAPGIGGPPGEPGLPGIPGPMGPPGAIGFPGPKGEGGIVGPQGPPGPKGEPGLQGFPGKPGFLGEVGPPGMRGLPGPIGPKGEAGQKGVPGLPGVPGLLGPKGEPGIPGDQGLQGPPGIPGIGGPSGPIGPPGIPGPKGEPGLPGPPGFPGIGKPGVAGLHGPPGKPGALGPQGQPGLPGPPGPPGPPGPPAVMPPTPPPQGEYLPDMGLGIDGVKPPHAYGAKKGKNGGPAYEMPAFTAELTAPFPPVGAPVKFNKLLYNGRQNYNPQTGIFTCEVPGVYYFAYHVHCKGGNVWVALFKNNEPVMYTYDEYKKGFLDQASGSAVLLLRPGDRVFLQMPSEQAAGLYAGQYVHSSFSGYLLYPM
row,Variant,effect of a mutation on the interaction
1,A127S,with no effect

# Variants of: B4
# Settings: with znf34_human ZNF34, Q8IZ26
# Chain of znf34_human ZNF34, Q8IZ26 (Q8IZ26 whole entry): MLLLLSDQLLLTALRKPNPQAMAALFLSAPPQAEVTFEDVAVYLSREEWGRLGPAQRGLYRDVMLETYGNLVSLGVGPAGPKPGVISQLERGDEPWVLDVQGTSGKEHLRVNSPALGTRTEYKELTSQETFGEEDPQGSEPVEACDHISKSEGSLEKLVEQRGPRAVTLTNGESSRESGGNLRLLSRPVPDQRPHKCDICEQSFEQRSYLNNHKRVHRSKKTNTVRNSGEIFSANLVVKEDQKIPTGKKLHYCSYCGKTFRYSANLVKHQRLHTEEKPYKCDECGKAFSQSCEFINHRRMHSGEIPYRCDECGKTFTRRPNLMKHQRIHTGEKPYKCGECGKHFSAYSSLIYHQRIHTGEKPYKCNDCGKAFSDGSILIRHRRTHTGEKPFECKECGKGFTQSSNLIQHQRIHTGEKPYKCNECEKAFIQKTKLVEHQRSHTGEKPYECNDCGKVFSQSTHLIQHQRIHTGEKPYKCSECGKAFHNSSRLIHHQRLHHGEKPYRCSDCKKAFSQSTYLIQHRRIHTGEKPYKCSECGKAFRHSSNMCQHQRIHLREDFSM
row,Variant,effect of a mutation on the interaction
1,A127S,with no effect

# Variants of: B4
# Settings: with ntaq1_human NTAQ1, Q96HA8
# Chain of ntaq1_human NTAQ1, Q96HA8 (Q96HA8 whole entry): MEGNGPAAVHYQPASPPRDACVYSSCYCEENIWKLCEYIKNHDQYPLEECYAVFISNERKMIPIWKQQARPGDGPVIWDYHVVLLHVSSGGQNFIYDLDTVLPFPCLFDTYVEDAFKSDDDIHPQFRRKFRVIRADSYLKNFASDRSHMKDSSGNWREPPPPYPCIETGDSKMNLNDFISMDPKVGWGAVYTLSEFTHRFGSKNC
row,Variant,effect of a mutation on the interaction
1,A127S,with no effect

# Variants of: B4
# Settings: with casp1_human CASP1, P29466
# Chain of casp1_human CASP1, P29466 (P29466 whole entry): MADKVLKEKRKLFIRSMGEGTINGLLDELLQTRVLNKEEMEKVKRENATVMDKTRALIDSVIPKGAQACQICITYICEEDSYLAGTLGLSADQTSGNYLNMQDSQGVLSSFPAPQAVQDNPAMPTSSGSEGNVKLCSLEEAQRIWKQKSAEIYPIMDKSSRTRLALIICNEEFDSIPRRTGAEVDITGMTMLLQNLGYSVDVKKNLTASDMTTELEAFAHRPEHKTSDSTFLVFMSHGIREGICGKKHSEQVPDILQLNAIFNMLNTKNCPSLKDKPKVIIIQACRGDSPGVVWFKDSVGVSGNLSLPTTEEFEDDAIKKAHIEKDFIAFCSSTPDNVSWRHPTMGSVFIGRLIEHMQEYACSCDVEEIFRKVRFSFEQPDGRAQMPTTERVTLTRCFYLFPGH
row,Variant,effect of a mutation on the interaction
1,A127S,with no effect

# Variants of: B4
# Settings: with fyv1_human PIKFYVE
row,Variant,effect of a mutation on the interaction
1,A127S,with no effect

# Reference: IntAct's records for PubMed 29892012
